Source: patent US20170204182A1 (published 2017)
Residue numbers refer to the chain shown, from its start.

T1: CD81 (UniProt P60033 1-236, limits assumed)
T1 construct: whole, on cells; also called CD81 receptor
T1 sequence (looked up): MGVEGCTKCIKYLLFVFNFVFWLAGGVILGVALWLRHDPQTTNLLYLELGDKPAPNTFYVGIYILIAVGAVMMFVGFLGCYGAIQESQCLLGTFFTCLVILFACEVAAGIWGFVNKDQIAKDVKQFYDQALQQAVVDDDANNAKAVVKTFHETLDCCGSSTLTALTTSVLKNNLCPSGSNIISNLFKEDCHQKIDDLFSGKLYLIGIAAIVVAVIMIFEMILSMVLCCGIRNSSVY

B1: Rb86 variant: HC 002--IMGT_hVH_3_23 / LC Rb86 (antibody, V domains shown)
VH: QSVLESGGGLVQPGGSLRLSCAASGFSLSSNAINWVRQAPGKGLEWVGYIAVSGNTYYASWAKGRFTISRDNSKNTLYLQMNSLRAEDTAVYYCGKSNIWGPGTLVTVSS
VL: AQVLTQTTSPVSAAVGSTVTISCQSSQSVRTNKLAWFQQKPGQPPKRLIYSASTLDFGVPSRFSASGSGTQFTLTISDVQCDDAATYYCLGYFDCSIADCVAFGGGTEVVVK
B2: Rb86 variant: HC 001_IGHV3_23_04 / LC 010--IMGT_hVK_1_17 (antibody, V domains shown)
VH: B1 VH with S2Q, V3L, L4V, P102Q
VL: DIQMTQSPSSLSASVGDRVTITCRASQGVRTNKLGWYQQKPGKAPKRLIYSASTLQSGVPSRFSGSGSGTEFTLTISSLQPEDFATYYCLGYFDCSIADCVAFGGGTKVEIK
B3: Rb86 variant: HC 001_IGHV3_23_04 / LC 014--IMGT_hVK_1_17 (antibody, V domains shown)
VH: B1 VH with S2Q, V3L, L4V, P102Q
VL: B2 VL with G35A, Y37F, K43Q, A44P, P81S
B4: Rb86 variant: HC 001_IGHV3_23_04 / LC 012--IMGT_hVK_1_17 (antibody, V domains shown)
VH: B1 VH with S2Q, V3L, L4V, P102Q
VL: B2 VL with G35A, Y37F, K43Q, A44P
B5: Rb86 variant: HC 001_IGHV3_23_04 / LC 017--IMGT_hVK_1_17 (antibody, V domains shown)
VH: B1 VH with S2Q, V3L, L4V, P102Q
VL: B2 VL with A25S, G28S, G35A, Y37F, K43Q, A44P, Q56D, S57F
B6: Rb86 variant: HC 001_IGHV3_23_04 / LC 015--IMGT_hVK_1_17 (antibody, V domains shown)
VH: B1 VH with S2Q, V3L, L4V, P102Q
VL: B2 VL with G35A, Y37F, K43Q, A44P, C95S, C100S
B7: Rb86 variant: HC 001_IGHV3_23_04 / LC 013--IMGT_hVK_1_17 (antibody, V domains shown)
VH: B1 VH with S2Q, V3L, L4V, P102Q
VL: B2 VL with P8T, G35A, Y37F, K43Q, A44P
B8: CD81K04 HC CD81K04 / LC CD81K04 (antibody, V domains shown)
VH: QVQLQQSGPELVKPGASVKISCKASGYTFSSSWMNWVKQRPGKGLEWIGRIYSGDGDAIYNGKFKGKATLTADKSSSTAYMQLSSLTSEDSAVYFCAREGKTGDLLLRSWGQGSALTVSS
VL: DIVLTQSPASLSVSLGQRATISCRASKSVSTSIYSYMHWYQQKPGQPPKLLIKYASYLESGVPARFSGSGSGTDFTLNIHPVEEEDAATYYCEHSREFPFTFGTGTKLEIK
notes: chimeric form of murine CD81K04
B9: CD81K04 HC K04_JA-13-hVH_1_3 / LC CD81K04 (antibody, V domains shown)
VH: QVQLVQSGAEVKKPGASVKVSCKASGYTFSSSWMNWVRQAPGQRLEWMGRIYSGDGDAIYNGKFKGRVTITRDTSASTAYMELSSLRSEDTAVYYCAREGKTGDLLLRSWGQGTLVTVSS
VL: B8 VL
B10: Rb86 variant: HC Rb86 / LC 012--IMGT_hVK_1_17 (antibody, V domains shown)
VH: QSVEESGGRLVTPGTPLTLTCTVSGFSLSSNAINWVRQAPGKGLEWIGYIAVSGNTYYASWAKGRFTISKASTTVDLKMTSPTAEDTGTYFCGKSNIWGPGTLVTVSL
VL: B2 VL with G35A, Y37F, K43Q, A44P
B11: Rb86 variant: HC Rb86 / LC 017--IMGT_hVK_1_17 (antibody, V domains shown)
VH: B10 VH
VL: B2 VL with A25S, G28S, G35A, Y37F, K43Q, A44P, Q56D, S57F

Legend:
[1] = molecular target: T2, phosphorylated human tau protein (human, UniProt P10636-8 1-441, limits assumed, S422 phosphorylation); assay: SPR (BIAcore), captured antibody
T2 construct: also called pTau

[2] = molecular target: T2, phosphorylated human tau protein; assay: SPR (BIAcore); value set to 0 where kd not determinable
CD81 = molecular target: T1, CD81; assay: cell ELISA
Description: For the binding cell ELISA assay, HuH7-Rluc-H3 (positive cell line expressing CD81) and HuH7-Rluc-L1 (negative control cell line) were propagated in F-12 DMEM medium with 10% FCS at 37° C. and 5% CO₂. On day 1, the cells were trypsinized at approximately 90% confluence and resuspended at 4×10⁵ cells/mL. […] On day 2, the antibody samples to be tested were prepared in a separate polypropylene round bottom plate with a twofold desired concentration with a final volume of 120 μl. All of the assay samples were diluted in cell culture medium. […] After fixation, each well was washed 3 times with 200 μL PBS/0.05% Tween. The secondary incubation step for detection of bound anti-CD81 antibodies was performed for 2 h at room temperature on a reciprocal shaker. […] Each well was washed three times with 200 PBS/0.05% Tween to remove unbound antibodies. […] The absorbance was read using the ELISA Tecan reader at 450 nm with 620 nm reference wavelength.

T2 sequence (P10636 other isoform, or with tags, fused parts or gaps limits assumed): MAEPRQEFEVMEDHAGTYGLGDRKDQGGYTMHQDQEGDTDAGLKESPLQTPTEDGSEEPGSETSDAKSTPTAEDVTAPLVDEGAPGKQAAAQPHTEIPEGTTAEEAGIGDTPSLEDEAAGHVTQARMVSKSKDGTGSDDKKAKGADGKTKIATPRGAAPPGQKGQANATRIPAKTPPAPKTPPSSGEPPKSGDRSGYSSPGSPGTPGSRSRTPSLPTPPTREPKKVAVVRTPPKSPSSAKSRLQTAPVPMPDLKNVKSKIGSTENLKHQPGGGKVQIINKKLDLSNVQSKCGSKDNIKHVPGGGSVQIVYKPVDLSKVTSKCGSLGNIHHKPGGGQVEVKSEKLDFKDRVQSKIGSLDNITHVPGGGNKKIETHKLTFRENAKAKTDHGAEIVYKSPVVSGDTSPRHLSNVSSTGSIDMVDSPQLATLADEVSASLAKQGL

Row | Binder | half-life (t1/2) [1] | other results
1 | B1 | 8.41 min | –
2 | B2 | – | half-life (t1/2) [2]: 0 h
3 | B3 | 5.08 min | –
4 | B4 | 4.67 min | –
5 | B5 | 5.26 min | –
6 | B6 | 3.02 min | –
7 | B7 | 5.65 min | –
8 | B8 | – | ELISA absorbance (CD81): 1.14
9 | B9 | – | ELISA absorbance (CD81): 0.975
10 | B10 | 15.9 min | –
11 | B11 | 23.2 min | –
